The text below walks through data of US20190134153A1, “IMMUNOMODULATORY EFFECT OF INHALED KINASE INHIBITOR PEPTIDES IN LUNG” (MOERAE MATRIX, INC., priority 2017, published 2019).

Targets include Abl(T315I)(h) (Homo sapiens, UniProt P00519, T315I); CDK2/cyclinE(h) (Homo sapiens, UniProt P24941); CDK5/p35(h) (Homo sapiens, UniProt Q00535); CHK2(I157T)(h) (Homo sapiens, UniProt O96017, I157T); PKCθ(h) (Homo sapiens, UniProt Q04759).
Experiment in all cases: Kinase Profiling Assay
Holding throughout (format): biochemical
Holding throughout (conditions): 100 μM

For the next assay, the target named is T1, DDR2(h) (Homo sapiens, UniProt Q16832).
T1 sequence (Q16832 22-855): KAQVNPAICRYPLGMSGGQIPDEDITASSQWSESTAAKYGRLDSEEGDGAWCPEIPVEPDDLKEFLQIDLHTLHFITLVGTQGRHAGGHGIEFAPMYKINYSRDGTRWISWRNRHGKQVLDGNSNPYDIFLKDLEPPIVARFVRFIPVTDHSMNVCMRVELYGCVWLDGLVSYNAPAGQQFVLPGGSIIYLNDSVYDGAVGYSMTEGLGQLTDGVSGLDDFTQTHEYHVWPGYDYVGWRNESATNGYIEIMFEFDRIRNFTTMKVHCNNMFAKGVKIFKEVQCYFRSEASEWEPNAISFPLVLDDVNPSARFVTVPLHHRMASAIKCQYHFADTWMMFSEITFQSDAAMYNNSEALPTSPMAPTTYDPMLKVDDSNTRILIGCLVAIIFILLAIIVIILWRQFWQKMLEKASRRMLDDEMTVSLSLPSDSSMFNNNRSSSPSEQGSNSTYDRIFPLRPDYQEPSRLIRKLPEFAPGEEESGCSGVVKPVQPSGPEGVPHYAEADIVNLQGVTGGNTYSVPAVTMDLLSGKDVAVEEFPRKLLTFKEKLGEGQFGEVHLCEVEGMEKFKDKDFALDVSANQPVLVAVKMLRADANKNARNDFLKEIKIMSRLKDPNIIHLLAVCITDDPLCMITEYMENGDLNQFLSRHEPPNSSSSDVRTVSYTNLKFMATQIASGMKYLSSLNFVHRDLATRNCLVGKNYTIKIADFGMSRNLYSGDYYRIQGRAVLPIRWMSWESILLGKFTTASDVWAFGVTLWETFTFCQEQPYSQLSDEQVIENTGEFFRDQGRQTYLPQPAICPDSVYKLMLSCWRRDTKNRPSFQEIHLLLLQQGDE

A further assay concerns the target T2, EphB4(h) (Homo sapiens, UniProt P54760).
T2 sequence (P54760 16-987): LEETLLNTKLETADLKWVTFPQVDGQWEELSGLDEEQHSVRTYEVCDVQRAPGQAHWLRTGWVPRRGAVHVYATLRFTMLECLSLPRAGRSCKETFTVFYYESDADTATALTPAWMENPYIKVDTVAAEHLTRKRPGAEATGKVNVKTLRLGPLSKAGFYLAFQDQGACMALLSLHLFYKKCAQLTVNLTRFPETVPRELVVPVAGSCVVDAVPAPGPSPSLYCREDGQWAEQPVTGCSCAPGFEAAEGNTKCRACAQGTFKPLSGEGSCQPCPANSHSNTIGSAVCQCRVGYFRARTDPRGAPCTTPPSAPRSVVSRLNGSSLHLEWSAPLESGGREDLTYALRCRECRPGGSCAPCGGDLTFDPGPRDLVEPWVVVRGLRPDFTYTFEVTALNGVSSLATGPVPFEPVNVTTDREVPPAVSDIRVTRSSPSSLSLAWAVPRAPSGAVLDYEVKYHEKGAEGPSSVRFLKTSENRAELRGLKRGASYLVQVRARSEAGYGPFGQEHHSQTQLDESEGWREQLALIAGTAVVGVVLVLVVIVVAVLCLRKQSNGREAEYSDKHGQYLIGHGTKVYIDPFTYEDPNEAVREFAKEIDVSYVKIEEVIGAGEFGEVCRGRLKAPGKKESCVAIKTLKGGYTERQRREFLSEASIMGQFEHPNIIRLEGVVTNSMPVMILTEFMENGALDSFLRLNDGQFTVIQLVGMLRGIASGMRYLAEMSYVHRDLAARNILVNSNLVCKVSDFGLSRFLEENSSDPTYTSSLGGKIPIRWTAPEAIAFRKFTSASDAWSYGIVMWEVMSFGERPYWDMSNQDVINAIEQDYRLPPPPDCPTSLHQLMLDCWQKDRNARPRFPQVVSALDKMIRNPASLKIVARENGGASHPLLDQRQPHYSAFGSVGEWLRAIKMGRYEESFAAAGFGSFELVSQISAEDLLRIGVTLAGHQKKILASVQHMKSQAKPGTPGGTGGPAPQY

Another assay addresses T3, NEK2(h) (Homo sapiens, UniProt P51955).
T3 sequence (P51955 1-445): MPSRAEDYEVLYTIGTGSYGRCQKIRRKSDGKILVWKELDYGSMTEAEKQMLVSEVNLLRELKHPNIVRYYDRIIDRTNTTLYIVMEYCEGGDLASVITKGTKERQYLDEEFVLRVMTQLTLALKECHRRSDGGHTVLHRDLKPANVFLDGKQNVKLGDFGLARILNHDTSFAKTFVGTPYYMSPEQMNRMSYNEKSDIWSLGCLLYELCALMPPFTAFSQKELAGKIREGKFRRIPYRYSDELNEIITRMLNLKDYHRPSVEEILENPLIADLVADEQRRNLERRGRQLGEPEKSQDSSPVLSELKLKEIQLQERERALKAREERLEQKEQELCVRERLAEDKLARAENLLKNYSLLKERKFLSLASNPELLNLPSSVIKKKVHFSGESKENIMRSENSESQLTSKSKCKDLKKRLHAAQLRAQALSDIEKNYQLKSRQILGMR

CDK5/p35(h), sequence (Q00535 whole entry): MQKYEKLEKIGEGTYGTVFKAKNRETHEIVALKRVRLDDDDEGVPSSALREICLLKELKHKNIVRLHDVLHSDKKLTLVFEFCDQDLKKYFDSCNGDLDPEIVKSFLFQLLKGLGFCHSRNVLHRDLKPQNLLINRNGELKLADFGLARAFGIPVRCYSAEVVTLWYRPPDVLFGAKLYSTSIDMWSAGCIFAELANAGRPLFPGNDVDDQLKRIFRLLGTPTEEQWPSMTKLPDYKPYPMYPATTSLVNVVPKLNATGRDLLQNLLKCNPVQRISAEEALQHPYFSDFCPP
CDK5/p35(h), sequence (Q15078 whole entry partner): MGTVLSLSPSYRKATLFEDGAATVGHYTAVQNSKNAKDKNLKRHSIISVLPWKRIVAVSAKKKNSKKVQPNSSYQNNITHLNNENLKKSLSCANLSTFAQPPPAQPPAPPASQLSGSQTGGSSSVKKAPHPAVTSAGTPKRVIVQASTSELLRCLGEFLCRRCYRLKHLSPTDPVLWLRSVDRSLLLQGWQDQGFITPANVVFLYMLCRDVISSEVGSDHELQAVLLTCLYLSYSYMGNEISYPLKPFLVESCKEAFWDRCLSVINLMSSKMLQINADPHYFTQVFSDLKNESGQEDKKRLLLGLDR
PKCθ(h), sequence (Q04759 whole entry): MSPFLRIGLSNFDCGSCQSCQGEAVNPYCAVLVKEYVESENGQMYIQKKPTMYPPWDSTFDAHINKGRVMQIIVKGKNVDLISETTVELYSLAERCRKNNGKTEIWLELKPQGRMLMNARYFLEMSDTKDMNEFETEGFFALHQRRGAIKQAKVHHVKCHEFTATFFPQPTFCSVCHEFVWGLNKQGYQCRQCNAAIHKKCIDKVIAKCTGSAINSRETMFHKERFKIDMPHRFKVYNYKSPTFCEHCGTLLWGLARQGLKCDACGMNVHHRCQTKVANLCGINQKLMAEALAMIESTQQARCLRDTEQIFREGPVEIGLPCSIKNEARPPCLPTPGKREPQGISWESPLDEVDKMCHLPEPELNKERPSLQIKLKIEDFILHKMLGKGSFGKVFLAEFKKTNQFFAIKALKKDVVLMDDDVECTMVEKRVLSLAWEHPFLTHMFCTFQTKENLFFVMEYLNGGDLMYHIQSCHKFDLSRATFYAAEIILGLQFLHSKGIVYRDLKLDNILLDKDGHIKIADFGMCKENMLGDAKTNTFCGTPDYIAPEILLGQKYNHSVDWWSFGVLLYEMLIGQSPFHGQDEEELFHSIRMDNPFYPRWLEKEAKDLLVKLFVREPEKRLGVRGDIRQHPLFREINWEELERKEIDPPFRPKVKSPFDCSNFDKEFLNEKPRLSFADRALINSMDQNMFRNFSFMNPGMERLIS
CHK2(I157T)(h), sequence (O96017 whole entry I157T): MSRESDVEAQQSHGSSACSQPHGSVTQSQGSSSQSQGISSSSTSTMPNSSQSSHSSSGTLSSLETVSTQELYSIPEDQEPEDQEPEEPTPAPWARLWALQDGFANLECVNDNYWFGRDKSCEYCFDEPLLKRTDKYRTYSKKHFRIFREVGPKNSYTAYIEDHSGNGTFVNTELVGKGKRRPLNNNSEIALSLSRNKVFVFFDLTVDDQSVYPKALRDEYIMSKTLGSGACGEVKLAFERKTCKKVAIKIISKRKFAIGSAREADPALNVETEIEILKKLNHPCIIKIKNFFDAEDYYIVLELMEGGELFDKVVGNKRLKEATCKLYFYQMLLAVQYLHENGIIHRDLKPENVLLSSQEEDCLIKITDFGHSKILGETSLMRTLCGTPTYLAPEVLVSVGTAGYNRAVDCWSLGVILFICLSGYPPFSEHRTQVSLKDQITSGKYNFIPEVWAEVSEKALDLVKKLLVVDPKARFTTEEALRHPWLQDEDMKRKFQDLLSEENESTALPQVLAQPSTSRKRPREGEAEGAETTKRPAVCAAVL

On to HRRIKAWLKKIKALARQLGVAA [MMI-0500], for which the “% activity” value in the assay with Abl(T315I)(h) is recorded as 16%; with CDK2/cyclinE(h) it was 19%; in the assay with CDK5/p35(h) it was 59%; in the assay with CHK2(I157T)(h) it was 3%; with DDR2(h), 79%; in the assay with EphB4(h), 38%. The “% activity” value with NEK2(h) was determined as 0%; with PKCθ(h), 62%.

On to YARAAARQARAKALNRQLGVA [MMI-0200], for which the “% activity” value is 108% with Abl(T315I)(h); 92% with CDK5/p35(h); 85% in the assay with CHK2(I157T)(h); 131% with EphB4(h); 97% in the assay with NEK2(h); 101% with PKCθ(h).

For KAFAKLAARLYRKALARQLGVAA [MMI-0400], the “% activity” value with CDK2/cyclinE(h) was 83%; with CDK5/p35(h), 76%; with CHK2(I157T)(h), 41%; in the assay with DDR2(h), 95%; in the assay with EphB4(h), 28%; in the assay with NEK2(h) it was 61%. Moreover, in the assay with PKCθ(h), the “% activity” value came to 76%.

In the case of FAKLAARLYRKALARQLGVAA [MMI-0300], the “% activity” value is on record as 97% with Abl(T315I)(h); 94% with CDK2/cyclinE(h); 79% in the assay with CDK5/p35(h); 43% with CHK2(I157T)(h); 94% in the assay with DDR2(h); 44% with EphB4(h). The “% activity” value with NEK2(h) is reported as 78%; with PKCθ(h) it was 88%.
